Laboratory results as given in article PMC3814720, “Pro-inflammatory cytokines can act as intracellular modulators of commensal bacterial virulence”.

Molecular target: TNF-α (human, UniProt P01375 77-233)
Test: EMSA; 5-20 uM TNF-α
Conditions: chain copies: 3; label: 32P 5'-end; blunt

Chain of TNF-α (P01375 77-233): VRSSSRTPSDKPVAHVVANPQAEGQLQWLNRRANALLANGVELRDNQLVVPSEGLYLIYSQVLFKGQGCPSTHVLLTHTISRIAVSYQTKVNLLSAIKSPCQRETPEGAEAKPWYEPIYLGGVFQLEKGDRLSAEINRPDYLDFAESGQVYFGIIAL

B1: app internal region (dsDNA)
DNA 1: GTTTTTTACCAACAGGAGGCTCATTTGGCGACAGTGGCTCACCAATGTTTATCTATGATGCCCAAAAGCAAAAGTG
DNA 2: CACTTTTGCTTTTGGGCATCATAGATAAACATTGGTGAGCCACTGTCGCCAAATGAGCCTCCTGTTGGTAAAAAAC
Does B1 bind?
Result: no binding
